Data on three substances can be found in PMC3493562.

By stoichiometry N is commonly meant the number of molecules, sites or subunits per partner or assembly.

Where “and” joins values, the source holds several entries; their conditions need not be identical. Identical values can stand only once. Like-named read-outs stand apart in the source and are kept apart here.

Series [1] can be described thus: SEC.
For series [2], the target named is amyloid β peptide (Aβ) of the TBS-soluble fraction of human Alzheimer's disease brain (human (endogenous in brain)). The experiment in a line: SEC. (Size exclusion chromatography separates by hydrodynamic size, large species first.)
The target is the same in series [3]. The experiment in a line: SDS-PAGE and immunoblot.
Series [4] can be described thus: split reporter. As to conditions: split reporter (BiFC, NanoBiT).
For series [5], the target named is split-luciferase tagged Aβ. The experiment in a line: split reporter.
Series [6] has as its target split-luciferase tagged Aβ. The experiment in a line: split reporter. This is another data set of the same source.
Series [7] deals with split-luciferase tagged Aβ. The experiment in a line: SEC + split reporter.
Series [8] deals with split-luciferase tagged Aβ. The experiment in a line: split reporter. This is another data set of the same source.

For the substance “amyloid β peptide (Aβ) of the TBS-soluble fraction of human Alzheimer's disease brain”, the “percent of LMW Aβ eluting in the HMW Aβ fraction after incubation without apoE” value in series [1] is on record as 0.5 ± 0.7 without apoE. Moreover, the stoichiometry N is 2 and 3 in series [2]; 2 in series [3].

split-luciferase tagged Aβ: in series [4], the “luminescence (%) after incubation with SEC fraction 6 of AD brain” value is 141.8% in AD fraction 6, the “luminescence (%) after incubation with SEC fraction 6 of control brain” value stood at 99.8% in control fraction 6, the “luminescence (%) after incubation with SEC fraction 7 of AD brain” value is reported as 198.4% in AD fraction 7 and the “luminescence (%) after incubation with SEC fraction 7 of control brain” value amounted to 163.2% in control fraction 7. For the same substance, in series [4], the “luminescence (%) after incubation with SEC fraction 8 of AD brain” value turned out to be 256.4% in AD fraction 8, the “luminescence (%) after incubation with SEC fraction 8 of control brain” value is reported as 230.8% in control fraction 8, the “luminescence (%) after incubation with SEC fraction 9 of AD brain” value turned out to be 207.6% in AD fraction 9 and the “luminescence (%) after incubation with SEC fraction 9 of control brain” value is reported as 202.6% in control fraction 9.

Regarding split-luciferase tagged Aβ (peptide), in series [5], the luminescence of conditioned medium (% of control) with apoE3 NTF co-expressed is 114%, the luminescence of conditioned medium (% of control) with apoE3 co-expressed came to 218% and the luminescence of conditioned medium (% of control) with apoE CTF co-expressed worked out at 206%. In series [6], the luminescence (%) after incubation with fraction 8 of APOEε3/ε3 AD brains was found to be 168%, the luminescence (%) after incubation with fraction 8 of APOEε4/ε4 AD brains came to 193%, the luminescence of cell lysate (%) with apoA-II co-expressed amounted to 100% and the luminescence of cell lysate (%) with apoE2 co-expressed came out at 89.9%. In series [6], this substance had a luminescence of cell lysate (%) with apoE3 co-expressed of 96.4%, a luminescence of cell lysate (%) with apoE4 co-expressed of 92.5%, a luminescence of conditioned medium (% of control) with apoA-I co-expressed of 132% and a luminescence of conditioned medium (% of control) with apoA-II co-expressed of 89.3%. Also, in series [6], the luminescence of conditioned medium (% of control) with apoE3 co-expressed stood at 279%, the luminescence of conditioned medium (%) with apoA-II co-expressed is 101%, the luminescence of conditioned medium (%) with apoE3 co-expressed worked out at 229% and the luminescence of conditioned medium (%) with apoE4 R61T co-expressed amounted to 228%. Further, in series [6], the luminescence of conditioned medium (%) with apoE4 co-expressed was 261%. In series [7], the stoichiometry N stood at 2. In series [8], this substance displayed a luminescence of conditioned medium (% of control) with apoA-II co-expressed of 91.7%, a luminescence of conditioned medium (% of control) with apoE3 NTF co-expressed of 113%, a luminescence of conditioned medium (% of control) with apoE3 co-expressed of 274% and a luminescence of conditioned medium (% of control) with apoE 192-242 co-expressed of 142%. In series [8], this substance yielded a luminescence of conditioned medium (% of control) with apoE 192-272 co-expressed of 185%, a luminescence of conditioned medium (% of control) with apoE 231-299 co-expressed of 223%, a luminescence of conditioned medium (% of control) with apoE 243-299 co-expressed of 235% and a luminescence of conditioned medium (% of control) with apoE CTF co-expressed of 239%.
